Measured values from paper PMC5833700, “MIF inhibits the formation and toxicity of misfolded SOD1 amyloid aggregates: implications for familial ALS” (Cell Death & Disease, 2018).

B1: locked-trimeric MIF mutant MIF^N110C (natural protein)
chain: PMFIVNTNVPRASVPDGFLSELTQQLAQATGKPPQYIAVHVVPDQLMAFGGSSEPCALCSLHSIGKIGGAQNRSYSKLLCGLLAERLRISPDRVYINYYDMNAANVGWNCSTFA
modifications: disulfide bridge of the introduced cysteine (N110C) with Cys-81 of an adjacent subunit
B2: macrophage migration inhibitory factor, wild type (MIF^WT) (natural protein, human, UniProt P14174 1-115, looked up)
chain: MPMFIVNTNVPRASVPDGFLSELTQQLAQATGKPPQYIAVHVVPDQLMAFGGSSEPCALCSLHSIGKIGGAQNRSYSKLLCGLLAERLRISPDRVYINYYDMNAANVGWNNSTFA
notes: No tag is mentioned; Surmise: the initiator methionine is removed in E. coli, since tautomerase activity was measured; also called recombinant MIF; hMIF; source: E. coli BL21 (DE3), purified (Capto Q anion exchange, Capto S cation exchange)

What was measured:
[1] = biological target: the molecule itself; assay: SDS-PAGE without prior crosslinking; 10 µM recombinant MIF, non-crosslinked control; sample buffer without β-mercaptoethanol; 13% SDS-PAGE and anti-MIF immunoblot
[2] = biological target: T1, poly-histidine tagged apo-SOD1^WT (human, UniProt P00441 1-154); assay: SPR; ProteOn XPR36; poly-histidine tagged apo-SOD1^WT (1 µg, 736 RU) immobilised on tris-NTA HTG chip; MIF as analyte, 31-1000 nM, 25 µl/min; PBST (PBS 300 mM NaCl, 0.05% Tween-20); 25 °C; HTB1 channel subtracted; apparent affinity from steady-state values; conditions: both partners purified
T1 construct: Cu/Zn superoxide dismutase (SOD1), human, wild type, codon-optimised, in the pHIS1 vector; Apo form; It was captured on the tris-NTA chip by its His tag; also called Cu/Zn superoxide dismutase; source: E. coli BL21, purified (HisTrap FF); not shown: His6, N-terminal, kept
T1 sequence (P00441 whole entry): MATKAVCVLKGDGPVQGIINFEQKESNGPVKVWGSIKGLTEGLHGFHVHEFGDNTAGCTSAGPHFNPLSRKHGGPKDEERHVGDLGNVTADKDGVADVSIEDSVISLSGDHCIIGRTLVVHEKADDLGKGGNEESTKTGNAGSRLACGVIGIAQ

| Binder | stoichiometry N [1] | Kd [2] [nM] |
| --- | --- | --- |
| B1 | 3 | 548 |
| B2 | – | 1300 |
